From article PMC7336453, “Inhibition of multiple defense responsive pathways by CaWRKY70 transcription factor promotes susceptibility in chickpea under Fusarium oxysporum stress condition”

T1: His6-CaWRKY40 (Cicer arietinum, UniProt A0A1S2YMJ3 1-315)
T1 sequence: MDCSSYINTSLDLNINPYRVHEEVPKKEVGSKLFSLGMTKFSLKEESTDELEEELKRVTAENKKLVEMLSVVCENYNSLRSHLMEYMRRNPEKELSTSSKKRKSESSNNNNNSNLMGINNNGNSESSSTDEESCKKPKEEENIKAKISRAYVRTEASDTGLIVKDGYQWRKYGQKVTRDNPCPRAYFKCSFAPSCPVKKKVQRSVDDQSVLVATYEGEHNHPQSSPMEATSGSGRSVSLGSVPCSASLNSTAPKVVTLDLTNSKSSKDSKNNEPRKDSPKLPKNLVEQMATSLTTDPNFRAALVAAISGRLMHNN


How the values were obtained:
[1] = molecular target: T1, His6-CaWRKY40; test: EMSA; 200 ng protein; competed by 50 molar excess cold probe; 20 mM HEPES pH 7.5, 100 mM KCl, 0.2 mM EDTA, 1 mM DTT, 2 mM MgCl2, 1 ug poly dI-dC; 10 ng probe, 100-200 ng protein; 30 min room temperature; 5% PAGE 0.5x TBE at 4 C; conditions: protein: recombinant; tags: 6xHis (pET28a); label: labelled (32P)
[2] = molecular target: T1, His6-CaWRKY40; test: EMSA; 200 ng protein; competed by 20 molar excess cold probe; 20 mM HEPES pH 7.5, 100 mM KCl, 0.2 mM EDTA, 1 mM DTT, 2 mM MgCl2, 1 ug poly dI-dC; 10 ng probe, 100-200 ng protein; 30 min room temperature; 5% PAGE 0.5x TBE at 4 C; conditions: protein: recombinant; tags: 6xHis (pET28a); label: labelled (32P)

| Binder | binding result [1] | binding result [2] |
| --- | --- | --- |
| pCaMPK9 W-box 2 (dsDNA) DNA 1: TTAAAATTATTTGTCATCTAAAAGAATCA DNA 2: TGATTCTTTTAGATGACAAATAATTTTAA | binds |  |
| pCaMPK9 W-box 1 (dsDNA) DNA 1: ATTGGTTCAGTTTTGTAGTCAACAAAATCT DNA 2: AGATTTTGTTGACTACAAAACTGAACCAAT |  | binds |
